Among the data in FireProtDB (doi:10.1038/s41598-019-41819-5) are denaturant m value and unfolding free energy values, retold here.

Several values for one entry are separate records, joined by “and”; a condition that tells them apart may be missing. Equal values may be shown once.

To fix the notation:
B1: Forkhead box protein P1, Q9H334 (parent)
chain: MMQESGTETKSNGSAIQNGSGGSNHLLECGGLREGRSNGETPAVDIGAADLAHAQQQQQQALQVARQLLLQQQQQQQVSGLKSPKRNDKQPALQVPVSVAMMTPQVITPQQMQQILQQQVLSPQQLQVLLQQQQALMLQQQQLQEFYKKQQEQLQLQLLQQQHAGKQPKEQQQVATQQLAFQQQLLQMQQLQQQHLLSLQRQGLLTIQPGQPALPLQPLAQGMIPTELQQLWKEVTSAHTAEETTGNNHSSLDLTTTCVSSSAPSKTSLIMNPHASTNGQLSVHTPKRESLSHEEHPHSHPLYGHGVCKWPGCEAVCEDFQSFLKHLNSEHALDDRSTAQCRVQMQVVQQLELQLAKDKERLQAMMTHLHVKSTEPKAAPQPLNLVSSVTLSKSASEASPQSLPHTPTTPTAPLTPVTQGPSVITTTSMHTVGPIRRRYSDKYNVPISSADIAQNQEFYKNAEVRPPFTYASLIRQAILESPEKQLTLNEIYNWFTRMFAYFRRNAATWKNAVRHNLSLHKCFVRVENVKGAVWTVDEVEFQKRRPQKISGNPSLIKNMQSSHAYCTPLNAALQASMAENSIPLYTTASMGNPTLGNLASAIREELNGAMEHTNSNESDSSPGRSPMQAVHPVHVKEEPLDPEEAEGPLSLVTTANHSPDFDHDRDYEDEPVNEDME

This data set covers variants of B1. To be noted: Homo sapiens, 37 °C, GdnHCl, fluorescence, transition: 3, structure 2KIU, whole UniProt chain shown.

Consider H520A, for which, where the note is “pH 5”, the denaturant m value turned out to be 5.8 kcal/mol/M and the unfolding free energy stood at 17.9 kcal/mol. Also, for the setting “pH 7.8”, the denaturant m value was 6.6 kcal/mol/M and the unfolding free energy amounted to 20.2 kcal/mol.
For S518C, the denaturant m value was 3.2 kcal/mol/M and 1.4 kcal/mol/M (pH 5); 2.7 kcal/mol/M and 2 kcal/mol/M (pH 7.8).
For the variant V539C, where the note is “pH 5”, the denaturant m value is 3.1 kcal/mol/M and 1.1 kcal/mol/M; the unfolding free energy was 1.4 kcal/mol and 4.2 kcal/mol.
